In the Human Domainome abundance scans (Beltran et al. 2025):

B1: SAM and SH3 domain-containing protein 1, residues 630 to 700; numbered along this chain, O94885 (parent)
chain: GRPPQPKSVEDLLDRINLKEHMPTFLFNGYEDLDTFKLLEEEDLDELNIRDPEHRAVLLTAVELLQEYDSN
B2: Formin-binding protein 4, residues 200 to 261; numbered along this chain, Q8N3X1 (parent)
chain: SGWQYDTQCSLAGVGIEMGDWQEVWDENTGCYYYWNTQTNEVTWELPQYLATQVQGLQHYQP

Variants of: B1
Assay: abundance fitness (aPCA) (normalised: wild type 0, dead -1); higher = more abundant; growth selection in yeast, the domain comes from the species named
Conditions: Homo sapiens

Abundance fitness, by site and new letter:
P4: H -0.01, E 0.237, A 0.046, C -0.088, S -0.03, M 0.078, T 0.101, N 0.09, F 0.2, Q 0.159, I 0.058, R -0.198, D 0.343, Y 0.067, W -0.008
G1: P -0.137, A -0.064, Y 0.098, N 0.17, T 0.016, L 0.036, D 0.195, M 0.013, R -0.203, H -0.161, E 0.166, Q 0.109, V -0.049, I 0.047, K 0.163, C -0.067
P3: M 0.008, W -0.132, V 0.035, K -0.279, Q -0.118, C -0.073, H -0.094, L -0.036, Y 0.005, E 0.04, I 0.035, N -0.038, A -0.115, F 0.044, R -0.302, T -0.014, D 0.2
Q5: G -0.694, M -0.033, V -0.149, K -0.258, A -0.291, I -0.02, P -0.276, T -0.365, N -0.113, R -0.25, H -0.033, Y 0.202, S -0.334, L -0.345, F 0.068, E -0.481, C 0.007, D -0.783
R2: T -0.239, S -0.446, K -0.212, G -0.509, P -0.632, C -0.971, A -0.489, F -0.21, Y -0.317, E -0.634, V -0.472, M -0.442, Q -0.412, L -0.246, I -0.011, W -0.643, H -0.301, D -0.137
P6: F 0.085, E -0.481, G -0.655, C -0.507, H -0.607, I -0.151, A -0.421, D -0.158

Variants of: B2
Assay: as above
Conditions: Homo sapiens

Abundance fitness, by site and new letter:
Q55: M -0.102, C 0.121, A -0.012, S -0.177, F -0.018, E -0.268, L -0.184, I -0.321, Y -0.389, N -0.186, K -0.173, D -0.005, P -0.647, R -0.12, H -0.482, T -0.18, W 0.039, V -0.173
T52: I 0.029, S 0.008, L -0.064, M -0.218, R 0.034, V -0.011, K 0.335, Y -0.248, A 0.085, D 0.301, W -0.295, P -0.486, N -0.028, G 0.038, Q -0.202
G56: Q 0.076, W -0.16, N 0.051, R 0.004, A -0.018, D 0.177, L -0.209, Y -0.401, F -0.464, P -0.178, V -0.219, M -0.367, E 0.224, C -0.255, T 0.015, I -0.425, S -0.031, H -0.186
Y49: V -0.097, H 0.118, S 0.126, K -0.181, R -0.527, D -0.006, M -0.113, W -0.266, P -0.165, L -0.126, I 0.081, F 0.004, C -0.069, E 0.09, N -0.162, T -0.007, A 0.022
A51: N -0.237, P -0.752, I -0.703, M -0.245, W -0.175, D -0.388, K -0.025, C -0.145, Y -0.124, Q -0.519, G -0.346, V -0.237, E -0.3, L -0.323, H -0.308, T -0.306, S -0.178, R -0.087
L57: P -0.075, R -0.029, C -0.305, F 0.02, Y -0.315, V -0.047, M -0.159, S -0.084, E -0.093, I -0.136, G -0.15, K 0.312, D -0.043, Q 0.047, N -0.212, W -0.349, H -0.084
Q53: P -0.663, S -0.765, F -0.621, K -0.188, V -0.679, M -0.624, T -0.606, W -0.634, D -0.314, G -0.688, H -0.68, I -0.611, C -0.738, R -0.215, L -0.457, A -0.407, E -0.588
V54: S -0.603, Y -0.274, Q -0.754, T -0.403, H -0.716, A -0.336, L -0.094, R -0.625, E -0.741, I 0.1, M 0.055, K -0.589, G -0.546, N -0.48, D -0.644, P -0.741, F -0.214
Q48: V -0.127, T 0.053, W -0.417, Y 0.23
H59: P -0.115, L -0.083, I 0.045, Q 0.083, M 0.082, A 0.008, F -0.062, S -0.029, G -0.017, E 0.137, K 0.188, N 0.033, T 0.147, Y -0.296, R -0.125
L50: T -0.704, E -0.488, G -0.767, A -0.822, D -1.04, K -0.719, R -0.82, C -0.45, F -0.716, S -0.613, P -0.741, Q -0.7, I -0.214, Y -0.738, H -0.732, W -0.48, M -0.52, N -1.06
P62: T -0.009, M 0.218, S 0.045, E -0.469, L -0.011, C -0.006, K 0.194, Y -0.161, A 0.124, I -0.268, Q -0.237, R -0.29, G -0.028, V -0.423, F -0.103, H 0.084
Y60: A 0.115, M 0.177, Q 0.123, S 0.066, P 0.113, W -0.068, C 0.035, I 0.153, G 0.103, D 0.19, T 0.101, E 0.117, F 0.124, V 0.099, K 0.038, N 0.01, H 0.092, L 0.086, R 0.112
Q58: L -0.36, R -0.242, K 0.127, W -0.421, E -0.059, A -0.019, H -0.005, F -0.195, Y -0.256, M -0.067, P -0.209, C -0.293, T -0.139, N 0.083, G -0.086
Q61: R -0.101, L -0.132, C -0.203, Y -0.287, N -0.108, G -0.018, P -0.201, M -0.16, F -0.263, W -0.423, S -0.083, I -0.299, K -0.046, T 0.263, A 0.115, E 0.065, H -0.266, D -0.034
